Results taken from the Human Domainome abundance scans (Beltran et al. 2025).

B1: Ubiquitin-protein ligase residues 30 to 86; numbered along this chain, Q05086 (parent)
chain: KHLIERYYHQLTEGCGNEACTNEFCASCPTFLRMDNNAAAIKALELYKINAKLCDPH

Variants of: B1
Assay: abundance fitness (aPCA) (normalised: wild type 0, dead -1); higher = more abundant; growth selection in yeast, the domain comes from the species named
Settings: Homo sapiens

Abundance fitness, by site and new letter:
T30: R 0.044; P -0.097; W -0.006; Q -0.048; D -0.071; I -0.042; N -0.052; E -0.055; Y -0.216; C -0.022; L -0.083; K 0.012; G 0.025; V -0.083; S 0.016; A 0.018; M -0.153
F31: Q -0.098; C -0.043; H -0.013; I -0.169; G -0.025; M 0.057; N 0.027; E -0.124; P -0.185; R -0.14
N22: Y -0.277; I -0.492; V -0.301; D -0.602; S -0.033; M -0.478; K -0.831; W -0.73; C -0.532; F -0.418; R -0.638; T -0.12; P -0.916; H -0.345; Q -0.286; L -0.727; E -0.236; G -0.318
F24: D -0.026; V -0.03; K -0.041; Q 0.016; N -0.017; M -0.031; Y -0.026; T -0.018; H 0.028; W 0.07; I -0.024; G -0.057; A -0.041; R -0.095; E -0.057; S -0.033; L -0.016; P -0.734
E23: Q -0.019; F -0.084; W -0.134; R -0.045; P -0.105; C -0.082; M -0.021; L -0.106; A -0.077; K -0.054; H -0.09; T -0.022; D -0.062; S -0.001; G -0.045; Y -0.102
C25: V -0.891; G -0.973; Y -0.816; M -0.841; S -0.741; N -0.882; I -0.613; L -1.08; W -1.05; A -1.03; F -0.791; E -0.72; R -1.05; P -1.18; H -0.887; K -1.01
S27: F -0.349; P -0.711; N -0.06; T -0.113; M -0.112; R -0.186; L -0.523; A -0.072; W -0.772; V -0.594; D -0.131; E -0.374; Y -0.441; C -0.061; H -0.196; G -0.09; K -0.06; Q -0.179; I -0.763
T21: D -0.011; Q -0.046; H 0.018; F -0.008; K 0.059; R -0.038; S -0.037; N 0.067; A 0.029; C -0.015; P -0.076; E 0.043; W -0.105; Y -0.458; G -0.022; M -0.129; L -0.086; V -0.005; I -0.033
P29: S -0.09; I -0.122; H -0.036; A -0.118; D -0.252; Y -0.191; V -0.156; N -0.304; K -0.014; L -0.149; R -0.061; E 0.03; F -0.195; Q -0.103; W -0.557; G -0.088
G16: Y -0.117; A -0.049; S -0.062; R -0.127; K -0.064; P -0.132; N -0.061; Q -0.059; L -0.11; W -0.191; F -0.221; D -0.041; C -0.049; V -0.2; I -0.33; E -0.049; M -0.179
C28: V -0.151; K -0.038; N -0.006; R -0.071; S -0.064; T -0.07; G -0.183; P -0.475; A -0.019; Y -0.06; D -0.171; W -0.16; I -0.276; Q -0.128; E -0.144; L -0.217; F -0.031
C20: F -0.889; L -1.03; Y -0.717; W -0.98; P -1.03; K -1.13; M -1.08; Q -0.893; V -1.02; D -0.883; E -1.02; G -0.86; N -1.1; S -0.821; I -0.941
E13: A 0.029; K 0.041; I -0.048; F -0.047; M -0.093; H -0.006; S 0.008; D 0.055; L 0.006; V -0.071; Y -0.01; Q 0.06; T -0.009; P -1.02; R -0.02; W -0.163
G14: N -0.849; D -0.945; A -0.866; V -0.973; Y -1.02; S -0.946; I -1.02; T -0.848; Q -1.09; F -0.865; H -0.957; W -0.942; R -0.966; L -0.967; E -0.919
A19: I -0.102; C -0.12; M 0.011; W -0.073; K -0.001; F -0.031; Y -0.1; R -0.022; D 0.023; P -0.084; S -0.008; L -0.045; H -0.006; G -0.015; E 0.004; N -0.015; V -0.013
L11: Y -0.566; V -0.036; W -0.904
E18: R -0.066; Q 0.076; G -0.054; A 0; F -0.181; N 0.061; S 0.001; D -0.004; I -0.075; H 0.014; M 0.006; L -0.056; C -0.044; T -0.003; Y -0.071; V -0.023; K -0.089; W -0.151
N17: D -0.04; L -0.071; C -0.037; G -0.008; W 0.005; F -0.091; Q -0.087; Y -0.042; A -0.001; E -0.029; K 0.027; S -0.034; M -0.096; H -0.008; R -0.042; V -0.05; P -0.091; T 0.014; I -0.067
A26: D -0.67; H -0.163; C -0.053; F 0.077; G -0.146; E -0.332; K 0.034; M -0.111; V -0.156; Y -0.076; W -0.104; Q -0.156; P -0.876; R -0.096; S -0.047; L -0.143; T -0.328; I -0.097
C15: G -0.973; H -0.576; E -0.943; P -1.09; R -0.912; A -0.789; Y -0.944; T -0.833; F -0.885; M -1.04; D -0.796; S -1.07; Q -0.85; L -1; N -0.981; W -0.969
T12: M 0.03; A -0.128; L -0.015; I -0.062; S -0.039; V -0.028; E -0.355; P -0.998; Q -0.079; D -0.353; G -0.569; F -0.204; W -0.359; R -0.073
